From patent US20030203372A1, “Analysis method” (priority 2000, published 2003)

B1: p1E11 (nucleic acid, listed as Homo Sapiens)
DNA: TCTCTACAAATNNCTATAACAAAACTTTTTAGGAAAGTACCACAAATATGTTAAACAGAAGAAGCAAATCTCAAATAATGTGCAAAAGCTGTGAGTTTCTTCTTACATAAAACTGGTACCTAAGCAAGTGAGGGTTCATTTTATTTTTCACTCACCAATCCCCATATCATTATACAGTAACACCATACAGCCAAAACGGCCATGATATTCCTCCCTTCTCAGCCAAAATTGGGCAAGAGAGAATGACCCTTGTAGGGGAAAAGAAACCTCTACGATAAACTGAAATGCCACCATCAGGGTTTGTTGAAACTGTAGGNACAGGGTCTACGNCTCACTTAGCTGCTAATGAGTTTCTATGGTTCCAGNTGGGGTAGTTCAAAGTA
modifications: EST array clone; misc_feature 12, 13, 317, 330, 366: n = A,T,C or G
B2: p2A24 (nucleic acid, listed as Homo Sapiens)
DNA: TTTTTTTTTATTTGGATTCTATTTATTTAAAATTAAATTCTTTGCAAAATTGAACTTCTCAACTAAAACGTGTCCATGTCAGAATTTTAACTGTTAGCAGGTAGTTTGTGGCAAAGATGGCTAAATAATGAAGCAAATTAGAATCTGTGTGTATACTAATGAGCTGCTTTTTTTCTGTTGAGACTATCATTATTTGTCTTATTACCCAAGAGGCAATTACCTGAATTTGGATGTCTGAATTATAACTTATGCAGGAATAGTTCTGTAAATACATTTAAATAAACTGTAAAGATATTTAATAAATATAGTATTTATACTAATCTGTGTGCTTCTTTTGGTTTGAATAGTAACTAAATGAGACACCAGCCCTTGACATTGAGTTTGTTGGTCACTATCAGGTCCTCATTTCCAAGCCTCCTAGTCATTCTAGCACTGATTATATGCTGCTACTTTAACTGGCTCCAGCTGCTTCACTACATCAGTTTAGCTTCCTCAGAAATTCATCAAAATGGACGGACAATTAAATGTAAATTATAGAACTTTTTCCCAGCTGAGGCTTTGCACCTTCCGTATAGTATAGAGGGAAGCTACAAAAA
B3: p1K9 (nucleic acid, listed as Homo Sapiens)
DNA: AGTGTGAAATCTTCAGAGAAGAATTTCTCTTTAGTTCTTTGCAAGAAGGTAGAGATAAAGACACTTTTTCAAAAATGGCAATGGTATCAGAATTCCTCAAGCAGGCCTGGTTTATTGAAAATGAAGAGCAGGAATATGTTCAAACTGTGAAGTCATCCAAAGGTGGTCCCGGATCAGCGGTGAGCCCCTATCCTACCTTCAATCCATCCTCGGATGTCGCTGCCTTGCATAAGGCCATAATGGTTAAAGGTGTGGATGAAGCAACCATCATTGACATTCTAACTAAGCGAAACAATGCACAGCGTCAACAGATCAAAGCAGCATATCTCCAGGAAACAGGAAAGCCCCTGGATGAAACACTTAAGAAAGCCCTTACAGGTCACCTTGAGGAGGTTGTTTTAGCTCTGCTAAAAACTCCAGCGCAATTTGATGCTGATGAACTTCGTGCTGCCATGAAGGGCCTTGGAACTGATGAAGATACTCTAATTGAGATTTTGGCATCAAGAACTAACAAAGAAATCAGAGACATTAACAGGGTCTACAGAGAGGAACTGAAGAGAGATCTGGCCAAAGACATAACCTCAGACACATCTGGAGATTTTCGGAACGCTTTGCTTTCTCTTGCTAAGGGTGACCGATCTGAGGACTTTGGTGTGAATGAAGACTTGGCTGATTCAGATGCCAGGGCCTTGTATGAAGCAGGAGAAAGGAGAAAGGGGACAGACGTAAACGTGTTCAATACCATCCTTACCACCAGAAGCTATCCACAACTTCGCAGAGTGTTTCAGAAATACACCAAGTACAGTAAGCATGACATGAACAAAGTTCTGGACCTGGAGTTGAAAGGTGACATTGAGAAATGCCTCACAGCTATCGTGAAGTGCGCCACAAGCAAACCAGCTTTCTTTGCAGAGAAGCTTCATCAAGCCATGAAAGGTGTTGGAACTCGCCATAAGGCATTGATCAGGATTATGGTTTCCCGTTCTGAAATTGACATGAATGATATCAAAGCATTCTATCAGAAGATGTATGGTATCTCCCTTTGCCAAGCCATCCTGGATGAAACCAAAGGAGATTATGAGAAAATCCTGGTGGCTCTTTGTGGAGGAAACTAAACATTCCCTTGATGGTCTCAAGCTATGATCAGAAGACTTTAATTATATATTTTCATCCTATAAGCTTAAATAGGAAAGTTTCTTCAACAGGATTACAGTGTAGCTACCTACATGCTGAAAAATATAGCCTTTAAATCATTTTTATATTATAACTCTGTATAATAGAGATAAGTCCATTTTTTAAAAATGTTTTCCCCAAACCATAAAACCCTATACAAGTTGTTCTAGTAACAATACATGAGAAAGATGTCTATGTAGCTGAAAATAAAATGACGTCACAAGAC

Assays:
[1] = test system: primary human cell cultures (11 cell types); test: Custom gene array, 11 human cell types in normoxia or hypoxia for 6 hr and 18 hr; type: cell-based; conditions: for mRNA expression level, #1 HY 6 hr: cell type #1, hypoxia 6 hr; for mRNA expression level, #1 HY 18 hr: cell type #1, hypoxia 18 hr; for mRNA expression level, #1 NO: cell type #1, normoxia; for mRNA expression level, #2 HY 6 hr: cell type #2, hypoxia 6 hr; for mRNA expression level, #2 HY 18 hr: cell type #2, hypoxia 18 hr; for mRNA expression level, #2 NO: cell type #2, normoxia; for mRNA expression level, #3 HY 6 hr: cell type #3, hypoxia 6 hr; for mRNA expression level, #3 HY 18 hr: cell type #3, hypoxia 18 hr; for mRNA expression level, #3 NO: cell type #3, normoxia; for mRNA expression level, #4 HY 6 hr: cell type #4, hypoxia 6 hr; for mRNA expression level, #4 HY 18 hr: cell type #4, hypoxia 18 hr; for mRNA expression level, #4 NO: cell type #4, normoxia; for mRNA expression level, #5 HY 6 hr: cell type #5, hypoxia 6 hr; for mRNA expression level, #5 NO: cell type #5, normoxia; for mRNA expression level, #6 HY 6 hr: cell type #6, hypoxia 6 hr; for mRNA expression level, #6 NO: cell type #6, normoxia;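 as to mRNA expression level, #1 HY 18 hr: cell type #1 is adipocyte from subcutaneous adult adipose tissue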;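 as to mRNA expression level, #1 HY 6 hr: cell type #1 is adipocyte from subcutaneous adult adipose tissue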;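 as to mRNA expression level, #1 NO: cell type #1 is adipocyte from subcutaneous adult adipose tissue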;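 as to mRNA expression level, #2 HY 18 hr: cell type #2 is fetal cardiomyocyte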;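 as to mRNA expression level, #2 HY 6 hr: cell type #2 is fetal cardiomyocyte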;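 as to mRNA expression level, #2 NO: cell type #2 is fetal cardiomyocyte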;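 as to mRNA expression level, #3 HY 6 hr: cell type #3 is human umbilical vein endothelial cells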;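 as to mRNA expression level, #3 NO: cell type #3 is human umbilical vein endothelial cells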;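 as to mRNA expression level, #4 HY 18 hr: cell type #4 is adult dermal fibroblast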;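 as to mRNA expression level, #4 HY 6 hr: cell type #4 is adult dermal fibroblast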;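 as to mRNA expression level, #4 NO: cell type #4 is adult dermal fibroblast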;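 as to mRNA expression level, #5 HY 6 hr: cell type #5 is adult hepatocyte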;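 as to mRNA expression level, #5 NO: cell type #5 is adult hepatocyte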;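 as to mRNA expression level, #6 HY 6 hr: cell type #6 is blood-derived macrophage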;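 as to mRNA expression level, #6 NO: cell type #6 is blood-derived macrophage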
Procedure: Equivalent cultures of non-immortalized, non-transformed primary human cells of 10 distinct types, were cultured in either normoxia or were exposed to hypoxia for 6 hr and 18 hr, and gene expression changes were determined. […] Moreover, unlike the vast majority of information in the public domain relating to genes responsive to hypoxia, all of these cells were human and were cultured without any modifications following isolation from the human donors.
A non-primary cell type (#9) was used to represent neurons, since primary human neurons are difficult to source. Therefore a total of 11 cell types are compared. It should be noted that RNA from hepatocytes at the […] timepoint of hypoxia was not available for this work.
Each RNA sample was hybridised to duplicate or triplicate arrays, to ensure reproducible data, and was analysed using GeneSpring software. Data from replicate arrays were merged during analysis to generate mean values. Data normalisation was achieved per-array using the aforementioned list of control genes, such that differences in RNA labelling or hybridization due to experimental variation were corrected by referencing each gene to the mean value of the reference genes on the same array. Also, for each gene, expression values were obtained which represent the value in each experimental condition (e.g. macrophages 6 hr hypoxia) as compared to the median of value of that gene throughout the full range of experimental conditions (i.e. from all cell types). […] This is common in microarray data analysis.

[2] = test system: human breast and ovary tumors; test: Custom gene array, breast and ovary tumors versus normal adjacent tissue; conditions: Table 19
Source text: A study has been performed to examine the expression of these genes in a selection of breast and ovary tumors, comparing expression with normal adjacent tissue from the same patient. There is expected to be a large degree of variation between different patients, and the study here contains only 5 patients with a range of diagnoses.
Patients are designated as Letters:
E: person. Diagnosis: ovarian adenocarcinoma. Normal ovarian tissue derived from an age-matched separate individual.
: person. Diagnosis: poorly differentiated adenocarcinoma. Normal ovarian tissue derived from the same individual.
G: person. Diagnosis: moderately-differentiated adenocarcinoma. Normal ovarian tissue derived from the same individual.
H: person. Diagnosis: invasive ductal carcinoma. Normnal breast tissue derived from the same individual.
K: person. Diagnosis: invasive ductal carcinoma. Normal breast tissue derived from the same individual.
Data normalisation was done per-chip to correct for differences in labelling and hybridization efficiency. Per-gene normalisation was done such that the expression values of each gene are relative to the median value of that gene throughout the series of samples. By comparing the expression values under normal (nor) and tumor (turn) for a single patient, differences in expression between the normal and malignant tissue of that patient can be inferred.

Row | Molecule | mRNA expression level, #1 HY 6 hr [1] | mRNA expression level, #1 HY 18 hr [1] | mRNA expression level, #1 NO [1] | mRNA expression level, #2 HY 6 hr [1] | mRNA expression level, #2 HY 18 hr [1] | mRNA expression level, #2 NO [1] | mRNA expression level, #3 HY 6 hr [1] | mRNA expression level, #3 HY 18 hr [1] | mRNA expression level, #3 NO [1] | mRNA expression level, #4 HY 6 hr [1] | mRNA expression level, #4 HY 18 hr [1] | mRNA expression level, #4 NO [1] | mRNA expression level, #5 HY 6 hr [1] | mRNA expression level, #5 NO [1] | mRNA expression level, #6 HY 6 hr [1] | mRNA expression level, #6 NO [1] | other results
1 | B1 | 1.12 | 0.87 | 1.36 | 2.86 | 3.03 | 2.09 | 0.91 | 0.88 | 0.74 | 0.59 | 0.79 | 0.89 | 2.09 | 0.77 | 2.97 | 2.76 | #6 HY 18 hr (mRNA expression level) ([1]; cell type #6, hypoxia 18 hr): 2.90; #7 HY 6 hr (mRNA expression level) ([1]; cell type #7, hypoxia 6 hr): 0.64; #7 HY 18 hr (mRNA expression level) ([1]; cell type #7, hypoxia 18 hr): 0.34; #7 NO (mRNA expression level) ([1]; cell type #7, normoxia): 0.63; #8 HY 6 hr (mRNA expression level) ([1]; cell type #8, hypoxia 6 hr): 1.47; #8 HY 18 hr (mRNA expression level) ([1]; cell type #8, hypoxia 18 hr): 1.35; #8 NO (mRNA expression level) ([1]; cell type #8, normoxia): 0.64; #9 HY 6 hr (mRNA expression level) ([1]; cell type #9, hypoxia 6 hr): 1.16; #9 HY 18 hr (mRNA expression level) ([1]; cell type #9, hypoxia 18 hr): 0.64; #9 NO (mRNA expression level) ([1]; cell type #9, normoxia): 1.18; #10 HY 6 hr (mRNA expression level) ([1]; cell type #10, hypoxia 6 hr): 0.79; #10 HY 18 hr (mRNA expression level) ([1]; cell type #10, hypoxia 18 hr): 0.88; #10 NO (mRNA expression level) ([1]; cell type #10, normoxia): 0.74; #11 HY 6 hr (mRNA expression level) ([1]; cell type #11, hypoxia 6 hr): 2.49; #11 HY 18 hr (mRNA expression level) ([1]; cell type #11, hypoxia 18 hr): 1.93; #11 NO (mRNA expression level) ([1]; cell type #11, normoxia): 1.79; HIGHEST FOLD CHANGE IN HYPOXIA (hr hypoxia + cell type) ([1]; hypoxia/normoxia induction ratio, 6 hr hepatocyte): 2.73 (6 hr hepatocyte) fold
2 | B2 | 0.65 | 0.67 | 1.21 | 2.21 | 2.48 | 2.42 | 3.05 | 2.59 | 2.35 | 0.76 | 0.68 | 1.10 | 0.91 | 0.68 | 0.22 | 0.28 | HIGHEST FOLD CHANGE IN HYPOXIA (hr hypoxia + cell type) ([1]; DOWN, 18 hr adipocyte): 1.85 DOWN (18 hr adipocyte) ^ fold
3 | B3 | – | – | – | – | – | – | – | – | – | – | – | – | – | – | – | – | gene expression level on custom gene array, Breast nor H ([2]; breast, normal adjacent tissue, patient H): 1.20; gene expression level on custom gene array, Breast nor K ([2]; breast, normal adjacent tissue, patient K): 0.23; gene expression level on custom gene array, Breast tum H ([2]; breast, tumor tissue, patient H): 0.54; gene expression level on custom gene array, Breast tum K ([2]; breast, tumor tissue, patient K): 0.12; gene expression level on custom gene array, Ovary nor E ([2]; ovary, normal adjacent tissue, patient E): 0.46; gene expression level on custom gene array, Ovary nor F ([2]; ovary, normal adjacent tissue, patient F): 1.33; gene expression level on custom gene array, Ovary nor G ([2]; ovary, normal adjacent tissue, patient G): 1.07; gene expression level on custom gene array, Ovary tum E ([2]; ovary, tumor tissue, patient E): 4.09; gene expression level on custom gene array, Ovary tum F ([2]; ovary, tumor tissue, patient F): 1.17; gene expression level on custom gene array, Ovary tum G ([2]; ovary, tumor tissue, patient G): 0.31
